{"source": "paper PMC4226670", "about": "“TAp73 promotes cell survival upon genotoxic stress by inhibiting p53 activity”", "binders": {"B1": {"name": "PUMA promoter duplex, FAM (dsDNA)", "DNA 1": "CGCGCCTGCAAGTCCTGACTTGTCCGCGGC", "DNA 2": "GCCGCGGACAAGTCAGGACTTGCAGGCGCG"}}, "target": "T1, GST-TAp73α (UniProt O15350 1-636)", "T1 sequence": "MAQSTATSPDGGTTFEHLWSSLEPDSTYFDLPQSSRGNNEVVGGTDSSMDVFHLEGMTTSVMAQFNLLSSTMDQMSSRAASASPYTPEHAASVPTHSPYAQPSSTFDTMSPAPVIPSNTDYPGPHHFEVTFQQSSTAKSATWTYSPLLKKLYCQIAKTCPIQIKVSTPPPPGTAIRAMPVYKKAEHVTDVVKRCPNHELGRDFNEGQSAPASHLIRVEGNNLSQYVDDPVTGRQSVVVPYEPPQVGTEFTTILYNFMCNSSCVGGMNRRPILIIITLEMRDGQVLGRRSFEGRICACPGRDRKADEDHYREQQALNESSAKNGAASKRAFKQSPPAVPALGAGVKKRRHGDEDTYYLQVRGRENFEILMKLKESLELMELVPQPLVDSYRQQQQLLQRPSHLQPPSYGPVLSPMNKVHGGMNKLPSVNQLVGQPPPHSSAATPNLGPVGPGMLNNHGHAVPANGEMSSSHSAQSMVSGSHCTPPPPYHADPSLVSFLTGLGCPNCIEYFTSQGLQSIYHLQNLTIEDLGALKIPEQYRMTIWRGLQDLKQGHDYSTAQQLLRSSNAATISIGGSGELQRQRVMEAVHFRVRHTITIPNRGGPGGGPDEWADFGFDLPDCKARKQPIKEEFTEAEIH", "test": "fluorescence polarization; FP: 4 nM FAM duplex, 100 mM NaCl, 10 mM Tris-HCl pH 7.5, 10% glycerol, 5 mM DTT, 0.2 mg/mL BSA, room temperature; pull-down: 2 ug duplex with lysate, 90 min room temperature, then streptavidin beads 2 h 4 C", "conditions": "protein: commercial; tags: GST; chain copies: 4; label: 5' 6-FAM on strand 1; blunt"}
{"binder": "B1", "values": [{"measurement": "Kd", "value": 87.1, "unit": "nM"}]}
